The source of these data is US20260055148A1 (USTAV ORGANICKE CHEMIE A BIOCHEMIE AV CR V V I, published 2026).

Experiment [1] has as its target T1, His-C3d-Avi, biotinylated (human complement C3d with N-terminal His-tag and C-terminal Avi-tag) (human, UniProt P01024 996-1303, site-specific biotinylation of the C-terminal Avi-tag).
T1 construct: domain: C3d; SPR ligand for the ISG65 mutants; not shown: N-terminal His-tag (pET15b); C-terminal Avi-tag
In words: SPR BIAcore T200, biotinylated C3d-Avi immobilised, ISG65 as analyte; kon1. In general terms: In SPR one partner is held on a chip, and binding of the other changes the refractive index at the surface.

Experiment [2] deals with C3b (human complement C3b) (human, UniProt P01024 23-667; P01024 749-1663). In words: cell-based or functional assay.
C3b (human complement C3b), sequence (P01024 23-667 limits assumed, chain 1 of 2): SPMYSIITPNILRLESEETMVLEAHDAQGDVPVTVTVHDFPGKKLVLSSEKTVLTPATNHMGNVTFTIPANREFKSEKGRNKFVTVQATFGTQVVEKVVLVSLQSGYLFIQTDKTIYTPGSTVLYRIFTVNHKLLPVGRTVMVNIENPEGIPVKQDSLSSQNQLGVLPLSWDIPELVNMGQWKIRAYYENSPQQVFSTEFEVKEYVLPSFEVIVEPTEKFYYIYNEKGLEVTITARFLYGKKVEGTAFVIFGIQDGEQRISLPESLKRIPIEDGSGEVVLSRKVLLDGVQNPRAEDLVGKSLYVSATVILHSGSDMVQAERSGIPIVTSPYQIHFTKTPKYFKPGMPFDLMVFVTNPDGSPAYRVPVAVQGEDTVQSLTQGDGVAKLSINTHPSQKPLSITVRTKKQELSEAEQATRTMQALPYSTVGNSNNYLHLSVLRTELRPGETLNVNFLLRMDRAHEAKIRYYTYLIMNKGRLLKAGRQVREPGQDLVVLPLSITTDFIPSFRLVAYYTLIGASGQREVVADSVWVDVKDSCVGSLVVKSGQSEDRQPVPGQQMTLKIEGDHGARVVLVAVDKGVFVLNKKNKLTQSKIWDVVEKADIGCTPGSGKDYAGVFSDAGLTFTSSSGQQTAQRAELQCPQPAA
C3b (human complement C3b), sequence (P01024 749-1663 limits assumed, chain 2 of 2): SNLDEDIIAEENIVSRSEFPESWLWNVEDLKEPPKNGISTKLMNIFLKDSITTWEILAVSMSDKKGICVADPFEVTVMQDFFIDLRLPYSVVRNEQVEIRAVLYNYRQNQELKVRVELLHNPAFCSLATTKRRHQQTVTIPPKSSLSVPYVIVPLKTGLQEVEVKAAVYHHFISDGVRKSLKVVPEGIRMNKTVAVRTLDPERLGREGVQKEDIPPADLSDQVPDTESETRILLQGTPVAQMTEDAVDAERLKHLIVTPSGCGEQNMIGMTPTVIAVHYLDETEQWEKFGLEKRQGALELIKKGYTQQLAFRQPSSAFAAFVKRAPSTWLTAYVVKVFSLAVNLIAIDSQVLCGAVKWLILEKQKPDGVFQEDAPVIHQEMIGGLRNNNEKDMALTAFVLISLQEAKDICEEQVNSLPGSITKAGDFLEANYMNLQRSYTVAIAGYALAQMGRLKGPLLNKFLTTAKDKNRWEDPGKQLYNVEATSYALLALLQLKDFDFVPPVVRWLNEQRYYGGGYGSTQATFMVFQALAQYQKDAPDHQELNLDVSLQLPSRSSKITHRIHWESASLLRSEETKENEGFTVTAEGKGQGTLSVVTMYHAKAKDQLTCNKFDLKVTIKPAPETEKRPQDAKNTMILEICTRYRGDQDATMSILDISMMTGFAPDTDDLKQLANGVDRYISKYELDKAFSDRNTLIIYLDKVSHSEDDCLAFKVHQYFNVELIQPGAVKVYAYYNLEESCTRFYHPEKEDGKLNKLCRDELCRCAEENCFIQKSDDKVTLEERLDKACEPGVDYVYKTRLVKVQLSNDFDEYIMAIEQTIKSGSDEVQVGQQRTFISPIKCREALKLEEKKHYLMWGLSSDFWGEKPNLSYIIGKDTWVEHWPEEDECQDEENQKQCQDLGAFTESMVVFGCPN
The target of experiment [3] is T1, His-C3d-Avi, biotinylated (human …). In words: SPR BIAcore T200, biotinylated C3d-Avi immobilised, ISG65 as analyte.
Experiment [4] has the same target. In words: SPR BIAcore T200, biotinylated C3d-Avi immobilised, ISG65 as analyte; koff1.
Experiment [5] has the same target. In words: SPR, biotinylated C3d-Avi immobilised, ISG65 Y293A as analyte.

Residue numbers refer to the chain shown, from its start. In names and notes the source's numbering stands.

T1 sequence (P01024 996-1303 limits assumed): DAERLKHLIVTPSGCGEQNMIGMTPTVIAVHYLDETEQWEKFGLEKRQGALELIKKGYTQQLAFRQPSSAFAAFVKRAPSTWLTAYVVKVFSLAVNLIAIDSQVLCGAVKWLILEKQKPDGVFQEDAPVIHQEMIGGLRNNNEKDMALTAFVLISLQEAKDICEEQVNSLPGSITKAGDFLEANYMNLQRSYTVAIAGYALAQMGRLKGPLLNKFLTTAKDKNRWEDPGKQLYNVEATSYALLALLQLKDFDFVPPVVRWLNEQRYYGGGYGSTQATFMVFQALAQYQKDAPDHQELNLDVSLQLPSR

B1: His-ISG65 18-363 (extracellular domain of ISG65 of Trypanosoma brucei gambiense, Tbg.972.2.1600, with N-terminal hexa-histidine tag) (receptor)
chain: MGSSHHHHHHSSGLVPRGSHMLLVIGSEDNRVPGDKKLTKEGAAALCKMKHLADKVAKERSQELKDRTQNFAGYIEFELYRIDYWLEKLNGPKGRKDGYAKLSDSDIEKVKEIFNKAKDGITKQLPEAKKAGEEAGKLHTEVKKAAENARGQDLDDDTAKSTGLYRVLNWYCITKEERHNATPNCDGIQFRKHYLSVNRSAIDCSSTSYEENYDWSANALQVALNSWEDVKPKKLESAGSDKNCNIGQSSESHPCTMTEEWQTPYKETVEKLRELEDAYQRGKKAHDAMLGYANTAYAVNTKVEQEKPLTEVIAAAKEAGKKGAKIIIPAAAPATPTNSTKNDDSAPTEHVDRGIATNETQVEVGID
notes: Expressed in E. coli T7 shuffle cells; also called ISG65 wt
What is called kon is the second-order rate constant of association. Low values mean slower complex formation, high ones faster complex formation. By Kd is commonly meant the constant that tells how readily two partners part at equilibrium. High values mean lower affinity, low ones higher affinity. By koff is commonly meant the rate constant with which the complex falls apart. A high value points to fast dissociation. Take B1: in experiment [1], the kon turned out to be 1e+06 M⁻¹ s⁻¹. In addition, the “relative AP50 of human plasma, day 0” value in experiment [2] came out at 6 fold. In experiment [3], this molecule gave a Kd of 27.9 nM. In experiment [4], this molecule gave a dissociation rate constant (koff) of 0.04 s⁻¹.

B2: His-ISG65 18-363 Y293A (receptor)
chain: B1 chain with Y297A
notes: also called ISG65 Y293A
Take B2: in experiment [5], the binding result is “no binding (tested: ISG65 1.5-100 nM)”.
